From article PMC2397435 (2008)

T1: GAL4 DBD-p9 EIAVUK, P69732
T1 chain: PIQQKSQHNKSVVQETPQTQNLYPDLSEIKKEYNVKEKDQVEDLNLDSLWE

T2: Gal4 DBD-HIV-1 p6 (wild type), P12493
T2 chain: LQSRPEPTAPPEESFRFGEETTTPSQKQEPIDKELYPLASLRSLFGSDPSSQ

B1: Gal4 AD-ALIXΔ541–582, Q8WUM4-1 V509A (protein)
chain: MATFISVQLKKTSEVDLAKPLVKFIQQTYPSGGEEQAQYCRAAEELSKLRRAAVGRPLDKHEGALETLLRYYDQICSIEPKFPFSENQICLTFTWKDAFDKGSLFGGSVKLALASLGYEKSCVLFNCAALASQIAAEQNLDNDEGLKIAAKHYQFASGAFLHIKETVLSALSREPTVDISPDTVGTLSLIMLAQAQEVFFLKATRDKMKDAIIAKLANQAADYFGDAFKQCQYKDTLPKEVFPVLAAKHCIMQANAEYHQSILAKQQKKFGEEIARLQHAAELIKTVASRYDEYVNVKDFSDKINRALAAAKKDNDFIYHDRVPDLKDLDPIGKATLVKSTPVNVPISQKFTDLFEKMVPVSVQQSLAAYNQRKADLVNRSIAQMREATTLANGVLASLNLPAAIEDVSGDTVPQSILTKSRSVIEQGGIQTVDQLIKELPELLQRNREILDESLRLLDEEEATDNDLRAKFKERWQRTPSNELYKPLRAEGTNFRTVLDKAVQADGQAKECYQSHRDTIVLLCKPEPELNAAIPSANPAKTMQGSEVVNVLKSLLSNLDEVKKEREGLENDLKSVNFDMTSKFLTALAQDGVINEEALSVTELDRVYGGLTTKVQESLKKQEGLLKNIQVSHQEFSKMKQSNNEANLREEVLKNLATAYDNFVELVANLKEGTKFYNELTEILVRFQNKCSDIVFARKTERDELLKDLQQSIAREPSAPSIPTPAYQSSPAGGHAPTPPTPAPRTMPPTKPQPPARPPPPVLPANRAPSATAPSPVGAGTAAPAPSQTPGSAPPPQAQGPPYPTYPGYPGYCQMPMPMGYNPYAYGQYNMPYPPVYHQSPGQAPYPGPQQPSYPFPQPPQQSYYPQQ

Key:
[1] = biological target: p9 p9 (Equine infectious anemia virus) (UniProt P69730); experiment: SPR; details: cited from earlier work
[2] = biological target: T1, GAL4 DBD-p9 EIAVUK, P69732; experiment: yeast two-hybrid, β-galactosidase assay; details: chain shown with the change;; parent: est. 1.2; read off a plot
[3] = biological target: T2, Gal4 DBD-HIV-1 p6 (wild type), P12493; experiment: yeast two-hybrid, β-galactosidase assay; details: chain shown with the change;; parent: est. 0.85; read off a plot

Molecule | Kd [1] [nM] | other: relative β-Gal activity (relative to ALIX wild type = 1) [2] | other: relative β-Gal activity (relative to ALIX wild type = 1) [3]
ALIX deleted from PRR (from UniProt Q8WUM4) | 1200 |  | 
B1 |  | 1.1 | 0.05
